Columns and labels:
sc16a_human SEC16A = sc16a_human SEC16A (UniProt O15027)
sc16a_mouse Sec16a = sc16a_mouse Sec16a (UniProt E9QAT4)
Sequence of UniProt E9QAT4 (E9QAT4 whole entry): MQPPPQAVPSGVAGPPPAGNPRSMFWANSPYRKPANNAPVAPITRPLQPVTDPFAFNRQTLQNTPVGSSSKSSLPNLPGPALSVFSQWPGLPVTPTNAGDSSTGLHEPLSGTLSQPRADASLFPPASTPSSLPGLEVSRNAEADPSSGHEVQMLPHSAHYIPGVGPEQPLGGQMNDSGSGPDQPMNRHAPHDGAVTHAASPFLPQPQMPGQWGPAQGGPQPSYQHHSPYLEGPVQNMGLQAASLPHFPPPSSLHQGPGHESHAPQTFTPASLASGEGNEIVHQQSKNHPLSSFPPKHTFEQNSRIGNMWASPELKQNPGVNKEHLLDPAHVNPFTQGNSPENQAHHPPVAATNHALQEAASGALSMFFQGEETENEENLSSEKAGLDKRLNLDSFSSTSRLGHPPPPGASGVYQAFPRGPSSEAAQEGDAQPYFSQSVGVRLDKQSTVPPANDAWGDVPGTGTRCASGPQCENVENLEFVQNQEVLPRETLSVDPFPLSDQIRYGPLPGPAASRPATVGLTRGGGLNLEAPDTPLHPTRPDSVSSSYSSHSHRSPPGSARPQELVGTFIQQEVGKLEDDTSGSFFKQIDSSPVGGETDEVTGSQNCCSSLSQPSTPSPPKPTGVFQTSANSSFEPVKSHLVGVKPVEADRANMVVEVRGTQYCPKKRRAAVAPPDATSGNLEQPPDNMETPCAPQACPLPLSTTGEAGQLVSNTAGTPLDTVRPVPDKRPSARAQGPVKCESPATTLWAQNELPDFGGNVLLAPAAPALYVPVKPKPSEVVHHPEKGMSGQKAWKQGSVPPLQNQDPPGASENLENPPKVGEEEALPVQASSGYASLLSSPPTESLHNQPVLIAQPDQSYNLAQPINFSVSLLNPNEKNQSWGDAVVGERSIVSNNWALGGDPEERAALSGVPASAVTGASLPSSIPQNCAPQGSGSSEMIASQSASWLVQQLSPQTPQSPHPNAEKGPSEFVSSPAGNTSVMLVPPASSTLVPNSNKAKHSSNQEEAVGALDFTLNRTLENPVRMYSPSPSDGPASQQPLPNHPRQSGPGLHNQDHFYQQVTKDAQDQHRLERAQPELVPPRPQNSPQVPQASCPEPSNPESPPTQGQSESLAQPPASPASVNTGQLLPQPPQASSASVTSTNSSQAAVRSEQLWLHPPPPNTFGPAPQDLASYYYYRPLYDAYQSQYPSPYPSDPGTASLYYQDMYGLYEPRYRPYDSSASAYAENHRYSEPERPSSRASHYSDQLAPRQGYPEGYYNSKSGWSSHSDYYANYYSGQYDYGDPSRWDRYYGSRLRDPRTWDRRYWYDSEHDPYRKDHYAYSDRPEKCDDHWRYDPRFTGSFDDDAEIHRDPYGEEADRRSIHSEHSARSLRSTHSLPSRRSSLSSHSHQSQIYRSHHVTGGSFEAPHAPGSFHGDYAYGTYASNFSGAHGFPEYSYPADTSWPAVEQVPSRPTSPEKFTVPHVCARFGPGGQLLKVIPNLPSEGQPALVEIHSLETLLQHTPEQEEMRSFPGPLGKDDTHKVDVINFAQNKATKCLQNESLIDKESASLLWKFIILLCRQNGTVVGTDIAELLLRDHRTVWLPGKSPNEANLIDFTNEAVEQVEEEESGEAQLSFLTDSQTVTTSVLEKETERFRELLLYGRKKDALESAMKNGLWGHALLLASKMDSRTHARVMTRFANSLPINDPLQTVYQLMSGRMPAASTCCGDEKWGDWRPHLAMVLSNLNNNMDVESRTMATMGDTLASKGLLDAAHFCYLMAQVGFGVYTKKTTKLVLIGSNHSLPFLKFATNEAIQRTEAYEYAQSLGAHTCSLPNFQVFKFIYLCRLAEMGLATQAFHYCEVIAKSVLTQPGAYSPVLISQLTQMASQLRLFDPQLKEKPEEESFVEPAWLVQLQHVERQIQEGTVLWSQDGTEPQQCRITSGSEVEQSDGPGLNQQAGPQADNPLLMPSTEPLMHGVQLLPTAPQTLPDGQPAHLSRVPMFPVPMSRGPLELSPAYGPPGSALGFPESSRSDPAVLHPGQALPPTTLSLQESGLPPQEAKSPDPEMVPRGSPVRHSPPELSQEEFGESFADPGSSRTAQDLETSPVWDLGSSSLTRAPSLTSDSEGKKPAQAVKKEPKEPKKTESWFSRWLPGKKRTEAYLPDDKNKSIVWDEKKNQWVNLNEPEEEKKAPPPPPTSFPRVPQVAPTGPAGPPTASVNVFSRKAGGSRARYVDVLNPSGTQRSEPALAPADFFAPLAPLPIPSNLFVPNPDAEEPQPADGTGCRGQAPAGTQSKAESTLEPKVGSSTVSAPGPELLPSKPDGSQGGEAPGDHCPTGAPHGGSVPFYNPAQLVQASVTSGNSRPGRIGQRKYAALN

Sequence of UniProt O15027 (O15027 whole entry): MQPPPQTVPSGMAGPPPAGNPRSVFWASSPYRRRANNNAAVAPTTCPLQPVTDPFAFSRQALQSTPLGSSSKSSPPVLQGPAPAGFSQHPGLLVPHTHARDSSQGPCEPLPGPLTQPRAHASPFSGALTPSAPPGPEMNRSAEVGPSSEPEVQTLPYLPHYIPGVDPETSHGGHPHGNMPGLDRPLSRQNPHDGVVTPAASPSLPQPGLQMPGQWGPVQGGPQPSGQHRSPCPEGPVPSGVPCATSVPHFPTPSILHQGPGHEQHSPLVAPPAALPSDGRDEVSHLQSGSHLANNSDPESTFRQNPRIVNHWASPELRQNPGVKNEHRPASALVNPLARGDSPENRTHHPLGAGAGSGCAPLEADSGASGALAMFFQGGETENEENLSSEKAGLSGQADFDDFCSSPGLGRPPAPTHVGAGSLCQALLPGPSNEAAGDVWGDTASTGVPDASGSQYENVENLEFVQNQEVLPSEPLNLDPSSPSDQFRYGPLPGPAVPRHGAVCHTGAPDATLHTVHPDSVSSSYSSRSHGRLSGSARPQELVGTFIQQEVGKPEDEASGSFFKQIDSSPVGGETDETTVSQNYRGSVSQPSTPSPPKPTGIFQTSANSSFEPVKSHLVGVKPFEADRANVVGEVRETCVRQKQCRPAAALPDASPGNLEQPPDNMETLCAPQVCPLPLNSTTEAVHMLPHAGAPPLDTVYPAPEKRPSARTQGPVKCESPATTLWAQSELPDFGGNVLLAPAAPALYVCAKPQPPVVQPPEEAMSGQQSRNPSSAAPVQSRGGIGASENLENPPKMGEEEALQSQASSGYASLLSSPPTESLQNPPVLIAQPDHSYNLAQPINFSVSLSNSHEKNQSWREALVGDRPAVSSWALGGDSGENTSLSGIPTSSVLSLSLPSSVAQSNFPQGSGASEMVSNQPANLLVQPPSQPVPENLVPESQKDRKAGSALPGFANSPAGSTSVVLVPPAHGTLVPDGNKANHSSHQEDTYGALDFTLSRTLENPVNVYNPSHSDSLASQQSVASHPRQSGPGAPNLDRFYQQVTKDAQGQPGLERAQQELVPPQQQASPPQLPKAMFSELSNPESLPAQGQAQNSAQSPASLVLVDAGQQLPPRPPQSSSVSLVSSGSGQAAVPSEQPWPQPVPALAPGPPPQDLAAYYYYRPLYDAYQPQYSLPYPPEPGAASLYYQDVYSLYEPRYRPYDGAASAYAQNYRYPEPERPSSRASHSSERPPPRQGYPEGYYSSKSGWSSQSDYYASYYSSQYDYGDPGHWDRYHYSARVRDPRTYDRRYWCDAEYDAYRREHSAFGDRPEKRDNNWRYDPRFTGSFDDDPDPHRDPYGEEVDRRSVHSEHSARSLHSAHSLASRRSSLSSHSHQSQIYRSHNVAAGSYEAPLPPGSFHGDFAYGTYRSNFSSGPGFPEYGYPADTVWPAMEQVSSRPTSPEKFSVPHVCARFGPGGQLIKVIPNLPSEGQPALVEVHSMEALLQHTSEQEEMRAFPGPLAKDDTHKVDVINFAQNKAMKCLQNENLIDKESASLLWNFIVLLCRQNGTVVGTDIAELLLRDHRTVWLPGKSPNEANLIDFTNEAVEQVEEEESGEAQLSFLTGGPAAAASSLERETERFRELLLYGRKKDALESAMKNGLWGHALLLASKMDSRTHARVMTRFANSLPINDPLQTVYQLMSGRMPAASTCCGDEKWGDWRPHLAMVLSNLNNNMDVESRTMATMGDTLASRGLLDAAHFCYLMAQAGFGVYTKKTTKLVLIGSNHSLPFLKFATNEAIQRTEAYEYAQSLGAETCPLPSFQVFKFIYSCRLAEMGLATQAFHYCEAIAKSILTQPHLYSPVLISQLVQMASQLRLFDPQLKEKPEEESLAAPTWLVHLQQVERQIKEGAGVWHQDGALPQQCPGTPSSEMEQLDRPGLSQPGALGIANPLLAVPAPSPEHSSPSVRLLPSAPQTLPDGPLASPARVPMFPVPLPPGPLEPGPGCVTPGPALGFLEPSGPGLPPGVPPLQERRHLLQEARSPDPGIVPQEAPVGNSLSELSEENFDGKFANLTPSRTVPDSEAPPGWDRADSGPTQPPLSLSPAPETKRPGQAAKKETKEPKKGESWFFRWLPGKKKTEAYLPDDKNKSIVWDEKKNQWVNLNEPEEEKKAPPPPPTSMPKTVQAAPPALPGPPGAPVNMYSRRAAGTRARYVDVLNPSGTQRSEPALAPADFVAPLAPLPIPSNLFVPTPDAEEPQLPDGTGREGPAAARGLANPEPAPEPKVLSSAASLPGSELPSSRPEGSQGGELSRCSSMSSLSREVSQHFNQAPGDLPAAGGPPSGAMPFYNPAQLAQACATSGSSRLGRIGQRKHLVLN

Row | Substance | effect of a mutation on the interaction (sc16a_human SEC16A) | effect of a mutation on the interaction (sc16a_mouse Sec16a)
1 | Leucine-rich repeat serine/threonine-protein kinase 2 (Homo sapiens), Q5S007 K1347A | disrupting interaction strength | disrupting interaction strength
2 | Leucine-rich repeat serine/threonine-protein kinase 2 (Homo sapiens), Q5S007 R1441C | decreasing interaction strength | disrupting interaction strength

From IntAct's records for PubMed 25201882
